Reference: US20020098193A1
Values belong to the substance of their own block, whether it stands above or below them.

How the values were obtained:
[1] = molecular target: T1, FcRn of neonatal mouse intestine (mouse) (UniProt Q61559); test: cell-based or functional assay
T1 sequence (looked up): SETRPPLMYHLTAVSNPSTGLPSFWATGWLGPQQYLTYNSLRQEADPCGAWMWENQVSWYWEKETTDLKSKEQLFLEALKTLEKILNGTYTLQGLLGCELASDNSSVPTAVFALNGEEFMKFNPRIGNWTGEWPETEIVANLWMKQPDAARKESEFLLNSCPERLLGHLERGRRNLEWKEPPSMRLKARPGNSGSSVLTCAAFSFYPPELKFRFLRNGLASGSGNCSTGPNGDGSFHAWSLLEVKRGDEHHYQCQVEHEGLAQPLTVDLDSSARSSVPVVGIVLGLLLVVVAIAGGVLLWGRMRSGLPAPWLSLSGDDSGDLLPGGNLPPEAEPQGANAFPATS
T1 sequence (b2m, looked up): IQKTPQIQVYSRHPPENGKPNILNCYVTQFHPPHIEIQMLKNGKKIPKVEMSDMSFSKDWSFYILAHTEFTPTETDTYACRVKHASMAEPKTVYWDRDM

[2] = molecular target: Staphylococcal protein A (Staphylococcal) (UniProt P38507); test: direct binding of 125I-Fc-hinge fragments to SpA-agarose, pH 7.5
[3] = molecular target: recombinant soluble mouse FcRn (mouse) (UniProt Q61559); test: inhibition of 125I-sFcRn binding to murine IgG1-Sepharose; molar ratio of inhibitor/FcRn given as 1/500
[4] = molecular target: recombinant soluble mouse FcRn (mouse) (UniProt Q61559); test: inhibition of 125I-sFcRn binding to murine IgG1-Sepharose; molar ratio of inhibitor/FcRn given as 1/1000
[5] = molecular target: complete murine IgG1 molecule (mouse); test: 125I-sFcRn on mIgG1-Sepharose, incubation at pH 6.0 (913,948 cpm added)
[6] = molecular target: complete murine IgG1 molecule (mouse); test: 125I-sFcRn on mIgG1-Sepharose, incubation at pH 6.0 (937,685 cpm added)
[7] = molecular target: complete murine IgG1 molecule (mouse); test: 125I-sFcRn on mIgG1-Sepharose, incubation at pH 7.5 (931,302 cpm added)
[8] = molecular target: complete murine IgG1 molecule (mouse); test: 125I-sFcRn on mIgG1-Sepharose, incubation at pH 7.5 (943,936 cpm added)
[9] = molecular target: complete murine IgG1 molecule (mouse); test: 125I-sFcRn on mIgG1-Sepharose, incubation at pH 7.5 (958,958 cpm added)
[10] = molecular target: complete murine IgG1 molecule (mouse); test: 125I-sFcRn on mIgG1-Sepharose, incubation at pH 6.0 in presence of 500 ug free mIgG1 (937,985 cpm added)
[11] = molecular target: recombinant soluble mouse FcRn (mouse) (UniProt Q61559); test: SPR (BIAcore 2000), FcRn coupled to CM5 chip, Fc-hinge 100-300 nM in flow, pH 6.0

Substance: Fc fragment of murine IgG1 produced by papain digestion (from UniProt P01868 98-324)
Inhibition of transmission (%) of radiolabeled mIgG1 across the intestine of neonatal mice [1]: 62.5%

Substance: H310A and H435A
SpA binding, % of WT Fc-hinge [2]: 9 to 12 % of WT

Substance: HN-433 mutant Fc-hinge fragment
Inhibition of transmission (%) of radiolabeled mIgG1 across the intestine of neonatal mice [1]: 44.4%

Substance: bovine serum albumin (from UniProt P02769 25-607)
Inhibition of transmission (%) of radiolabeled mIgG1 across the intestine of neonatal mice [1]: 8.9%

Substance: recombinant soluble mouse FcRn (from UniProt Q61559 22-290; P01887 21-119) (receptor)
bound radioactivity [5]: 271000 cpm | bound radioactivity after pH 7.5 wash [5]: 42600 cpm | bound radioactivity [6]: 228000 cpm | bound radioactivity after pH 7.5 wash [6]: 42700 cpm | bound radioactivity [7]: 19600 cpm | bound radioactivity after pH 7.5 wash [7]: 16800 cpm | bound radioactivity [8]: 11600 cpm | bound radioactivity after pH 7.5 wash [8]: 10300 cpm | bound radioactivity [9]: 12300 cpm | bound radioactivity after pH 7.5 wash [9]: 9470 cpm | bound radioactivity [10]: 70700 cpm | bound radioactivity after pH 7.5 wash [10]: 26500 cpm

Next, values leading:

Inhibition of transmission (%) of radiolabeled mIgG1 across the intestine of neonatal mice [1]: 21.5%
Substance: Fc-hybrid (heterodimer of WT Fc-hinge and HQ-310/HN-433 mutant)

Inhibition of transmission (%) of radiolabeled mIgG1 across the intestine of neonatal mice [1]: 8.9% | % inhibition [3]: 1.6% | % inhibition [4]: 6.1%
Substance: HQ-310 mutant Fc-hinge fragment

% inhibition [3]: 0.2% | % inhibition [4]: 4%
Substance: HQ-310/HN-433 mutant Fc-hinge fragment (from UniProt P01868 98-324)

% inhibition [3]: 2.3% | % inhibition [4]: 6.5%
Substance: I253A mutant Fc-hinge fragment (from UniProt P01868 98-324)

Kd [11]: 7.44 nM | koff [11]: 0.00461 s⁻¹ | kon [11]: 620000 M⁻¹ s⁻¹ | % inhibition [3]: 18.4% | % inhibition [4]: 34.1%
Substance: wild type (WT) Fc-hinge fragment derived from murine IgG1 (from UniProt P01868 98-324)
